Several values for one entry are separate records, joined by “and”; a condition that tells them apart may be missing. Equal values may be shown once.
B1: collagenase-cleaved xZP2-N2N3 (domain or fragment)
chain 1: DEPGSSVVTCTKDSMTVRIPRTLSGFDDEIP
chain 2: VAAPSFWDLEVKFTGQTSLLGMSEARQRGYQFSSDPYYLTVQASYSAFGLNVFNLENQRLYVADLRLVSQFGSPRISIDTPMICARDSPSCNSTHATVLIPFFGGVLTGINVNSVNIQLSSYSLQQHGITLDSRNGYRLYIKRSTLKGDRNDVLVLTFIYYGKTVPMLISLVCSGGSN
modifications: not checked
B2: Xenopus egg exudate-cleaved xZP2-N2N3 (domain or fragment)
chain 1: B1 chain 1
chain 2: B1 chain 2
modifications: not checked

How the values were obtained:
[1] = target: collagenase-cleaved xZP2-N2N3 (Xenopus); test: SEC-MALS
[2] = target: collagenase-cleaved xZP2-N2N3 (Xenopus); test: native MS
[3] = target: Xenopus egg exudate-cleaved xZP2-N2N3 (Xenopus); test: SEC-MALS
[4] = target: Xenopus egg exudate-cleaved xZP2-N2N3 (Xenopus); test: native MS

Row | Binder | stoichiometry N [1] | stoichiometry N [2] | stoichiometry N [3] | stoichiometry N [4]
1 | B1 | 4 | 4 | – | –
2 | B2 | – | – | 4 and 2 | 2 and 4

From article PMC10976854
